Experimental findings from article PMC11137178, “Protein disulfide isomerase-9 interacts with the lumenal region of the transmembrane endoplasmic reticulum stress sensor kinase, IRE1, to modulate the unfolded protein response in Arabidopsis” (Frontiers in Plant Science, 2024) are described below.

Positions count from the first letter of the chain named. Numbers in names are those of the source.

In one assay the target is T1, PDI9:mCherry-KDEL (Arabidopsis thaliana, UniProt O48773 25-440).
T1 construct: Protein disulfide isomerase-9 (PDI9, PDI-M subfamily), Arabidopsis thaliana, At2g32920; made from the earlier construct PDI9:GFP-KDEL (Yuen et al., 2013) by exchanging GFP for mCherry; also called PDI9:Cherry-KDEL; PDI9:RFP; source: Arabidopsis leaf mesophyll protoplasts, transiently transfected, in living cells; not shown: mCherry-KDEL, C-terminal, kept
T1 sequence (looked up): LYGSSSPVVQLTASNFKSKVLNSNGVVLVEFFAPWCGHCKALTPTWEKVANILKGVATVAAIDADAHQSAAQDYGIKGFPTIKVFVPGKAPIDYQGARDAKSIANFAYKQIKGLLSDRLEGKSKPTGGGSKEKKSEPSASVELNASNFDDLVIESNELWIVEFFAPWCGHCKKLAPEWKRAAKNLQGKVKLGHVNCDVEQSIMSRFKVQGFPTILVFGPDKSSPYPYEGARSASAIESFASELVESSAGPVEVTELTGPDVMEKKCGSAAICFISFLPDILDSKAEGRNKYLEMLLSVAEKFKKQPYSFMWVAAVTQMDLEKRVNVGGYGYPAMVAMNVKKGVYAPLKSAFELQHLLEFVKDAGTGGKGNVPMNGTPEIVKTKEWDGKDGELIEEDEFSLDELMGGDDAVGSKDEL
In words: FRET or BRET; FLIM-FRET in living Arabidopsis leaf mesophyll protoplasts coexpressing the GFP donor (on IRE1) and the mCherry acceptor (on PDI9), 16-18 h after transfection; GFP lifetime per region of interest; E = (1 - ti/t0) x 100% against single-transfected GFP:IRE1. Particulars: partners not purified.

The target in the next assay is T2, PDI9(C63A):mCherry-KDEL (Arabidopsis thaliana, UniProt O48773 25-440, C63A).
T2 construct: PDI9, Arabidopsis thaliana, At2g32920; as m1 with the second cysteine of the first thioredoxin active site (CGHC to CGHA) changed; Parent construct m1; source: Arabidopsis leaf mesophyll protoplasts, transiently transfected, in living cells; not shown: mCherry-KDEL, C-terminal, kept
T2 sequence (looked up): T1 sequence (looked up) with C39A
The assay is described as above. The settings on record: partners not purified.

B1: GFP : IRE1A (receptor, Arabidopsis thaliana, UniProt Q9C5S2 31-841, looked up)
chain: DDVTYPIVPSSPGRRSILQIRREPPTEPNTKLVVDRDGKVFLKQQPKETPYWSFSTGSPMHSLYQAPANNNTENATEITRPHIIVEYLNNSKAATTVDGYHNWTVQEFFRQKPLVTDDGVTLGSETTSAYLVDGRSGRLIHVYKSTGDTKITNALVKPASTEDFVNEPLLIRRTDSKLEHFSKTTGKLVWNLTVSHFRAALLCDPVFNSGYDLGPKLQTGIYMPLLCGSQIDVRGPEIVIRVLHDQPMNVKMLPSPSLNHFESENSIMPFGKARESRKLQEQHKQKYTYLFGQWSPVKLLAPLVLLGVVVSVFIKKFSSRGSDVSLKAGPSKKKKNRKSAKDTNRQSVPRGQDQFELIEGGQMLLGFNNFQSGATDGRKIGKLFLSSKEIAKGSNGTVVFEGIYEGRPVAVKRLVRSHHEVAFKEIQNLIASDQHTNIIRWYGVEYDQDFVYLSLERCTCSLDDLIKSYLEFSMTKVLENNDSTEGVAAYKIQLDSLEGVIKGNNFWKVGGHPSPLMLKLMRDIVCGIVHLHELGIVHRDLKPQNVLISKDMTLSAKLSDMGISKRMSRDMSSLGHLATGSGSSGWQAPEQLLQGRQTRAVDMFSLGCVIFYTITGCKHPFGDDLERDVNIVKNKVDLFLVEHVPEASDLISRLLNPDPDLRPSATEVLLHPMFWNSEMRLSFLRDASDRVELENREADSEILKAMESTAPVAIGGKWDEKLEPVFITNIGRYRRYKYDSIRDLLRVIRNKLNHHRELPPEIQELVGTVPEGFDEYFAVRFPKLLIEVYRVISLHCREEEVFRKYFKCDII
notes: IRE1A (inositol-requiring enzyme-1 kinase), Arabidopsis thaliana, At2g17520; mature polypeptide region amplified from Col-0 genomic DNA and placed after the IRE1A signal peptide and GFP; Construct order: IRE1A signal peptide, GFP, mature IRE1A; source: Arabidopsis leaf mesophyll protoplasts, transiently transfected; in living cells (FLIM-FRET) and in protoplast extract (co-I.P.); not shown: GFP …
With B1, the “GFP donor fluorescence lifetime” value in the assay with PDI9:mCherry-KDEL was 2.29 ns; with PDI9(C63A):mCherry-KDEL it was 2.42 ns.

B2: GFP : IRE1B (receptor, Arabidopsis thaliana, UniProt Q93VJ2 22-881, looked up)
chain: FKGSEISKFYDKSISNQISQSDRESGYVLVSTVDGSISLVDMSSQKLDWTFHTNEPIYSSYQAPHYHYTTDEERSSVLGDDFYMDCDKDWRLYNSSVRKGKRVNEIVDASEFIGTLPYTSTDRIVLGKKDTSVFLLDWKTGKLVKRYRMDELYSNTVVENDKEKAIVLSKEAPLLFGSGFKKSEDFPELVYIERKDFKIQCISKFGDVLWSVSYAKMEAKLQNHESVQFISGLSSSVGKNQFPLSYTTSVPMVQLRNVKYETLFPRLGFLDEALYLPFQDRKPNQLAIGDGNQLTLPGNKEAEEVLSLPLPETVISQITDIIDGSTKQAGFASKFSGLIVLIFGFCVTMLSVCGLFFYRLRQSIRIKEPYVSEVPIATPKKKKSKKNGTTKAVHKKENGFISGGNKDPSHEENEKRLLTAFPGLNNSSAEGYRVGKLFVSNKEIAKGSNGTVVLEGSYEGRLVAVKRLVQSHHDVAQKEILNLMASDKHSNIVRWYGVDQDEHFIYISLELCACSLNDLIYASSALLESPMASSSIHSIQINPIFENGKGVELWKENGHPSPVLLKLMRDIVAGLVHLHDIGIVHRDLKPQNVLIVKNSSLCAKLSDMGISKRLPADTSALTRNSTGLGSGSSGWQAPEQLRNERQTRAVDLFSLGCVLFFCMTGGKHPYGDNYERDVNVLNDQKDLFLIESLPEAVHLLTGLLNPDPNLRPRAQDVMHHPLFWNSDMRLSFLRDASDRVELENREEGSQLLAALESTAAVTLNGRWDEKLDSIFLDNIGRYRRYKFDSIRDLLRVIRNKLNHYRELPKELQELLGSVPEGFERYFSSRFPKLLIQVYTVLFDYCNNEEFFFKYSKTTVF
notes: IRE1B, Arabidopsis thaliana, At5g24360; mature polypeptide region amplified from Col-0 genomic DNA and placed after the IRE1B signal peptide and GFP; Construct order: IRE1B signal peptide, GFP, mature IRE1B; source: Arabidopsis leaf mesophyll protoplasts, transiently transfected; in living cells (FLIM-FRET) and in protoplast extract (co-I.P.); not shown: GFP (eGFP S65T), N-terminal, kept
For B2, the “GFP donor fluorescence lifetime” value came out at 2.31 ns with PDI9:mCherry-KDEL and 2.42 ns with PDI9(C63A):mCherry-KDEL.
